# US20170342349A1, “STABILIZED ENZYME COMPOSITIONS” (NOVOZYMES A/S, priority 2014, published 2017)
# Key:
# [1] = target: TY145 (SEQ ID NO 3) variant S173P + S175P + F180Y + L184F; test: Ki fitted from Suc-AAPF-pNA activity in Model B detergent; IF relative to SEQ ID NO 3 comprising S173P + S175P + F180Y (second printed row for this variant)
# [2] = target: TY145 (SEQ ID NO 3) variant S173P + S175P + I178F + F180Y; test: as above
# [3] = target: TY145 (SEQ ID NO 3) variant S173P + S175P + F180Y + G182A; test: as above
# [4] = target: TY145 (SEQ ID NO 3) variant Q70N + S173P + S175P; test: Ki fitted from Suc-AAPF-pNA activity in Model B detergent; IF relative to SEQ ID NO 3 comprising S173P + S175P
# Sequence of TY145 (SEQ ID NO 3) variant Q70N + S173P + S175P (chain, as listed by the source Q70N S173P S175P Q70N S173P S175P limits assumed): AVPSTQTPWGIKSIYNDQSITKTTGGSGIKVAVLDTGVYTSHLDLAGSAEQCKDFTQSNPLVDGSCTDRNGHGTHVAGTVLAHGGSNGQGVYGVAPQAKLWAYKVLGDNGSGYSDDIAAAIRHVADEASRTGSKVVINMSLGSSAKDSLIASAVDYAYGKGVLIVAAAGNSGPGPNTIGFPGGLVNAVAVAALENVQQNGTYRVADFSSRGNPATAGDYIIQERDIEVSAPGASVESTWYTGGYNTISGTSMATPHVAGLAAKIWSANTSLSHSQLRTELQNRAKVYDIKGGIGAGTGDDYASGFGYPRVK
# [5] = target: TY145 (SEQ ID NO 3) variant I150L + S173P + S175P; test: as above
# Sequence of TY145 (SEQ ID NO 3) variant I150L + S173P + S175P (chain, as listed by the source I150L S173P S175P I150L S173P S175P limits assumed): as the sequence (chain, as listed by the source Q70N S173P S175P Q70N S173P S175P limits assumed) above, with N70Q, I150L counted along it
# [6] = target: TY145 (SEQ ID NO 3) variant S114V + S173P + S175P; test: as above
# Sequence of TY145 (SEQ ID NO 3) variant S114V + S173P + S175P (chain, as listed by the source S114V S173P S175P S114V S173P S175P limits assumed): as the sequence (chain, as listed by the source Q70N S173P S175P Q70N S173P S175P limits assumed) above, with N70Q, S114V counted along it
# [7] = target: TY145 (SEQ ID NO 3) variant S114V + I150L + S173P + S175P; test: as above
# Sequence of TY145 (SEQ ID NO 3) variant S114V + I150L + S173P + S175P (chain, as listed by the source S114V I150L S173P S175P S114V I150L S173P S175P limits assumed): as the sequence (chain, as listed by the source Q70N S173P S175P Q70N S173P S175P limits assumed) above, with N70Q, S114V, I150L counted along it
# [8] = target: Protease C (SEQ ID NO 6) variant N60H + S100I (Lederbergia lenta (Bacillus lentus)) (UniProt P29600); test: Ki fitted from Suc-AAPF-pNA activity in Model B detergent; IF relative to SEQ ID NO 6
# [9] = target: Protease C (SEQ ID NO 6) variant N60F (Lederbergia lenta (Bacillus lentus)) (UniProt P29600); test: as above
# [10] = target: Protease C (SEQ ID NO 6) variant Y166F (Lederbergia lenta (Bacillus lentus)) (UniProt P29600); test: as above
# [11] = target: Protease C (SEQ ID NO 6) variant N60A (Lederbergia lenta (Bacillus lentus)) (UniProt P29600); test: as above
# [12] = target: Protease C (SEQ ID NO 6) variant S100I (Lederbergia lenta (Bacillus lentus)) (UniProt P29600); test: as above
# [13] = target: TY145 (SEQ ID NO 3) variant S173P + S175P + F180Y; test: Ki fitted from Suc-AAPF-pNA activity in Model B detergent; IF relative to SEQ ID NO 3 comprising S173P + S175P + F180Y (the reference itself)
# TY145 (SEQ ID NO 3) = test: Ki fitted from Suc-AAPF-pNA activity at 8 inhibitor concentrations in Model B detergent; IF relative to SEQ ID NO 3 (the reference itself)
# [14] = target: TY145 (SEQ ID NO 3) variant S111R; test: Ki fitted from Suc-AAPF-pNA activity at 8 inhibitor concentrations in Model B detergent; IF relative to SEQ ID NO 3
# [15] = target: TY145 (SEQ ID NO 3) variant S114A; test: as above
# [16] = target: TY145 (SEQ ID NO 3) variant Q70F; test: as above
# [17] = target: TY145 (SEQ ID NO 3) variant Q70N; test: as above
# [18] = target: TY145 (SEQ ID NO 3) variant Q70A; test: as above
# [19] = target: TY145 (SEQ ID NO 3) variant I150N; test: as above
# [20] = target: TY145 (SEQ ID NO 3) variant L184Y; test: as above
# Sequence of TY145 (SEQ ID NO 3) variant L184Y (chain, as listed by the source L184Y L184Y limits assumed): as the sequence (chain, as listed by the source Q70N S173P S175P Q70N S173P S175P limits assumed) above, with N70Q, P173S, P175S, L184Y counted along it
# [21] = target: TY145 (SEQ ID NO 3) variant Y240R; test: as above
# [22] = target: TY145 (SEQ ID NO 3) variant L184F; test: as above
# Sequence of TY145 (SEQ ID NO 3) variant L184F (chain, as listed by the source L184F L184F limits assumed): as the sequence (chain, as listed by the source Q70N S173P S175P Q70N S173P S175P limits assumed) above, with N70Q, P173S, P175S, L184F counted along it
# [23] = target: TY145 (SEQ ID NO 3) variant G182A; test: as above
# Sequence of TY145 (SEQ ID NO 3) variant G182A (chain, as listed by the source G182A G182A limits assumed): as the sequence (chain, as listed by the source Q70N S173P S175P Q70N S173P S175P limits assumed) above, with N70Q, P173S, P175S, G182A counted along it
# [24] = target: TY145 (SEQ ID NO 3) variant I150S; test: as above
# Sequence of TY145 (SEQ ID NO 3) variant I150S (chain, as listed by the source I150S I150S limits assumed): as the sequence (chain, as listed by the source Q70N S173P S175P Q70N S173P S175P limits assumed) above, with N70Q, I150S, P173S, P175S counted along it
# Sequence of TY145 (SEQ ID NO 3) (chain, as listed by the source limits assumed): as the sequence (chain, as listed by the source Q70N S173P S175P Q70N S173P S175P limits assumed) above, with N70Q, P173S, P175S counted along it
# Sequence of TY145 (SEQ ID NO 3) variant S173P + S175P + F180Y (chain, as listed by the source S173P S175P F180Y S173P S175P F180Y limits assumed): as the sequence (chain, as listed by the source Q70N S173P S175P Q70N S173P S175P limits assumed) above, with N70Q, F180Y counted along it
substance,measurement,setting,value
Inhibitor 1: Cbz-Gly-Ala-NHCH(CH2C6H4pOH)C(OH)(SO3Na)-H (peptide),"IF (binding constant improvement factor, relative Ki)",[1],3.02
same,"IF (binding constant improvement factor, relative Ki)",[2],1.83
same,"IF (binding constant improvement factor, relative Ki)",[3],2.01
same,"IF (binding constant improvement factor, relative Ki)",[4],4.48
same,"IF (binding constant improvement factor, relative Ki)",[5],2.05
same,"IF (binding constant improvement factor, relative Ki)",[6],1.83
same,"IF (binding constant improvement factor, relative Ki)",[7],6.14
same,"IF (binding constant improvement factor, relative Ki)",[8],6.65
same,"IF (binding constant improvement factor, relative Ki)",[9],3.25
same,"IF (binding constant improvement factor, relative Ki)",[10],1.31
same,"IF (binding constant improvement factor, relative Ki)",[11],1.22
same,"IF (binding constant improvement factor, relative Ki)",[12],6.46
same,"IF (binding constant improvement factor, relative Ki)",[13],1
same,"IF (binding constant improvement factor, relative Ki)",TY145 (SEQ ID NO 3),1
same,"IF (binding constant improvement factor, relative Ki)",[14],1.11
same,"IF (binding constant improvement factor, relative Ki)",[15],2.14
same,"IF (binding constant improvement factor, relative Ki)",[16],8.53
same,"IF (binding constant improvement factor, relative Ki)",[17],3.33
same,"IF (binding constant improvement factor, relative Ki)",[18],2.54
same,"IF (binding constant improvement factor, relative Ki)",[19],3.68
same,"IF (binding constant improvement factor, relative Ki)",[20],4.47
same,"IF (binding constant improvement factor, relative Ki)",[21],1.19
same,"IF (binding constant improvement factor, relative Ki)",[22],2.27
same,"IF (binding constant improvement factor, relative Ki)",[23],1.86
same,"IF (binding constant improvement factor, relative Ki)",[24],4.94
